From article PMC8230665, “Specificity of Human Sulfiredoxin for Reductant and Peroxiredoxin Oligomeric State” (Antioxidants, 2021)

T1: hyperoxidized wild-type human peroxiredoxin 1, decameric (Prx1-SO2H) (human, UniProt Q06830 1-199, cysteine sulfinic acid at the peroxidatic cysteine (CP-SO2H; CP is Cys52))
T1 construct: peroxiredoxin 1 (Prx1), human; also called hyperoxidized Prx1; copies: 10
T1 sequence (looked up): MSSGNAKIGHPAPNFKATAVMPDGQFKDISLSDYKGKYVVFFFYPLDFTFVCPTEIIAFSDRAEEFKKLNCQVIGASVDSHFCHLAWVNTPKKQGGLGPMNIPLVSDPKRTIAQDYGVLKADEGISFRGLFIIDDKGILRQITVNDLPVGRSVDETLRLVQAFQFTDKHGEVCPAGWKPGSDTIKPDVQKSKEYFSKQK


Experiments:
[1] = biological target: T1, hyperoxidized wild-type human …; assay: fluorescence polarisation; Oregon Green 514-labelled Srx variants, decameric Prx1-SO2H added; MgCl2 omitted to prevent turnover; curves fit to a single site, saturable model; details: both partners purified
[2] = biological target: the molecule itself; assay: SEC-MALS; 2 mg/mL (86-93 µM) Prx in 50 mM HEPES pH 7.5, 100 mM NaCl; TSK Gel 4000 SW; reduced samples with 10 mM DTT, oxidized samples with 1.2 equivalents of H2O2
[3] = biological target: the molecule itself; assay: crystal structure; disulfide-bonded Srx-Prx1 complex (Cys99 of Srx to Cys52 of Prx1); hanging drop, 100 mM citric acid pH 4.5, 26% PEG 400, 100 mM CsCl; 3.0 Å, space group C2

Binder	stoichiometry N [2]	other results
Oregon Green 514-labelled human sulfiredoxin Tyr128Ala (enzyme, Oregon Green 514 label (position not given), sulfiredoxin (Srx), human; The unlabelled variant was used in the HPLC activity assay; also called Srx Y128A; source: site-directed mutant (QuikChange), purified) not shown		Kd [1]: 12.5 ± 1.2 µM
human peroxiredoxin 2, wild type (enzyme, UniProt P32119 1-198, looked up, peroxiredoxin 2 (Prx2), human; Stored in the disulfide-bonded form; run on SEC-MALS reduced (10 mM DTT) or oxidized (1.2 equivalents of H2O2); In the repair assay the protein was hyperoxidized (CP-SO2H); also called Prx2; WT Prx2; copies: 10) MASGNARIGKPAPDFKATAVVDGAFKEVKLSDYKGKYVVLFFYPLDFTFVCPTEIIAFSNRAEDFRKLGCEVLGVSVDSQFTHLAWINTPRKEGGLGPLNIPLLADVTRRLSEDYGVLKTDEGIAYRGLFIIDGKGVLRQITVNDLPVGRSVDEALRLVQAFQYTDEHGEVCPAGWKPGSDTIKPNVDDSKEYFSKHN	10	
human peroxiredoxin 2 Thr82Glu, engineered dimer (enzyme, UniProt P32119 1-198, looked up, peroxiredoxin 2 (Prx2), human; Vector pET19pp; His tag removed with HRV-3C protease; Section 2.6 prints the mutation as T83E; In the repair assay the protein was about 80% hyperoxidized; also called Prx2-T82E; Prx2-E; source: E. coli BL21Gold (DE3), purified (HisPur Cobalt, Q-Sepharose, Superdex 200); not shown: His tag, N-terminal, cleaved) MASGNARIGKPAPDFKATAVVDGAFKEVKLSDYKGKYVVLFFYPLDFTFVCPTEIIAFSNRAEDFRKLGCEVLGVSVDSQFEHLAWINTPRKEGGLGPLNIPLLADVTRRLSEDYGVLKTDEGIAYRGLFIIDGKGVLRQITVNDLPVGRSVDEALRLVQAFQYTDEHGEVCPAGWKPGSDTIKPNVDDSKEYFSKHN	2	
human peroxiredoxin 3 Ser139Glu/Ala142Glu, engineered dimer (enzyme, UniProt P30048 62-256, looked up, peroxiredoxin 3 (Prx3), mitochondrial, human; Vector pET15b; His tag removed with thrombin; In the repair assay the protein was about 20% hyperoxidized; also called Prx3-S139E/A142E; Prx3-EE; source: E. coli BL21Gold (DE3), purified (HisPur Cobalt, Q-Sepharose, Superdex 200); not shown: His tag, N-terminal, cleaved) APAVTQHAPYFKGTAVVNGEFKDLSLDDFKGKYLVLFFYPLDFTFVCPTEIVAFSDKANEFHDVNCEVVAVSVDSHFEHLEWINTPRKNGGLGHMNIALLSDLTKQISRDYGVLLEGSGLALRGLFIIDPNGVIKHLSVNDLPVGRSVEETLRLVKAFQYVETHGEVCPANWTPDSPTIKPSPAASKEYFQKVNQ	2	
human peroxiredoxin 3, wild type (enzyme, UniProt P30048 62-256, looked up, peroxiredoxin 3 (Prx3), mitochondrial, human; In the repair assay the protein was hyperoxidized (CP-SO2H); also called Prx3; WT Prx3; copies: 12) APAVTQHAPYFKGTAVVNGEFKDLSLDDFKGKYLVLFFYPLDFTFVCPTEIVAFSDKANEFHDVNCEVVAVSVDSHFSHLAWINTPRKNGGLGHMNIALLSDLTKQISRDYGVLLEGSGLALRGLFIIDPNGVIKHLSVNDLPVGRSVEETLRLVKAFQYVETHGEVCPANWTPDSPTIKPSPAASKEYFQKVNQ	12	
Oregon Green 514-labelled human sulfiredoxin (Srx), wild type (enzyme, Oregon Green 514 label (position not given), sulfiredoxin (Srx), human; also called WT Srx; Oregon Green labeled Srx) not shown		Kd [1]: 7 ± 1.5 µM
human peroxiredoxin 1 variant C71S, C83V, C173S (decamer) (enzyme, Cys52 disulfide-bonded to Cys99 of Srx (made through a Cys52-S-TNB mixed disulfide), peroxiredoxin 1 (Prx1), human; Only the peroxidatic Cys52 is left; C83V was put in to stabilise the decamer; also called Prx1 variant; Prx1 C83V mutant; source: purified; treated with DTNB, then titrated with Srx; copies: 10) MSSGNAKIGHPAPNFKATAVMPDGQFKDISLSDYKGKYVVFFFYPLDFTFVCPTEIIAFSDRAEEFKKLNSQVIGASVDSHFVHLAWVNTPKKQGGLGPMNIPLVSDPKRTIAQDYGVLKADEGISFRGLFIIDDKGILRQITVNDLPVGRSVDETLRLVQAFQFTDKHGEVSPAGWKPGSDTIKPDVQKSKEYFSKQK		stoichiometry N [3]: 10
